Laboratory results: US20210253639A1 (REGENTS OF THE UNIVERSITY OF MICHIGAN, published 2021)
Ends that are not written are not given here. E3 = triethyleneglycol (PEG3) linker; Cy5.5 = cyanine 5.5 fluorophore

Columns and labels:
[1] = target: EGFR and ErbB2 together on the surface of cells that express both (OE33, SKBr3) (human) (UniProt P00533); test: confocal microscopy on OE33 cells, against QRH*-Cy5.5 and KSP*-Cy5.5
[2] = target: EGFR and ErbB2 together on the surface of cells that express both (OE33, SKBr3) (human) (UniProt P00533); test: flow cytometry on OE33 cells, against QRH*-Cy5.5 and KSP*-Cy5.5
[3] = target: EGFR and ErbB2 together on the surface of cells that express both (OE33, SKBr3) (human) (UniProt P00533); test: flow cytometry time course on OE33 cells, 1 µM peptide, first-order fit
[4] = target: EGFR and ErbB2 together on the surface of cells that express both (OE33, SKBr3) (human) (UniProt P00533); test: flow cytometry on OE33 cells, apparent dissociation constant
[5] = target: T1, epidermal receptor growth factor 2 (ErbB2) (human, UniProt P04626 23-1255); test: confocal microscopy of FITC-labeled peptides on Flo1-HER2 cells
T1 construct: whole, on cells; Receptor on human cancer cell lines or xenograft tumour cells; also called HER2; HER2/neu
Description: A FITC label was attached to each peptide, and binding to Flo1-HER2 and QhTERT cells (control) was imaged using confocal microscopy. […] KSPNPRF (SEQ ID NO: 2) was selected based on the highest mean fluorescence intensity with binding to Flo1-HER2. From the model, this peptide was determined to bind to HER2 domain 3. The peptide was then labeled for deep tissue imaging with a Cy5.5 fluorophore via a GGGSK (SEQ ID NO: 3) linker on the C-terminus, hereafter KSP*-Cy5.5. Cy5.5 was chosen for high quantum yield and photostability. The linker prevents steric hindrance by spatially separating the fluorophore from the peptide. A scrambled sequence PPSNFKR (SEQ ID NO: 4) was developed for use as control by altering the conformationally rigid spacer PNP and moving both hydrophobic and hydrophilic amino acids at the C-terminus. This control peptide also was linked to Cy5.5 via GGGSK (SEQ ID NO: 3), hereafter PPS*-Cy5.5. […] The fluorescence emission peak occurs at 708 nm in the NIR spectrum.

[6] = target: T2, epidermal growth factor receptor (EGFR) (human, UniProt P00533 25-1210); test: flow cytometry on OE33 cells (carry EGFR and ErbB2), apparent dissociation constant
T2 construct: whole, on cells; Endogenous receptor on human cancer cell lines or xenograft tumour cells; also called ErbB-1; HER1

[7] = target: T1, epidermal receptor growth factor 2 …; test: as above

B1: QRH*-KSP*-E3-Cy5.5 (peptide)
peptide 1: QRHKPRE-E3
peptide 2: KSPNPRF-E3
modifications: not fully specified (bridges); also: heterodimer: both C-termini joined via E3 to alpha and epsilon amines of a Lys, followed by Lys carrying Cy5.5
B1 gave a fold greater fluorescence intensity compared with either monomer alone [1] of 3 fold, a fold improved binding affinity compared with either monomer alone [2] of 2 fold and an apparent association time constant Ka [3] of 0.22 min⁻¹. For the same binder, the association time (printed in brackets after Ka) [3] was 4.5 min and the Kd [4] was 23 nM.

B2: KSPNPRF with a FITC label (peptide)
peptide: KSPNPRF
modifications: also: FITC label, attachment not given here
B2: binds [5].

B3: QRH*-Cy5.5 (peptide)
peptide: QRHKPREGGGSK(Cy5.5)-NH2
notes: also called QRH*-GGGSK-Cy5.5; EGFR monomer peptide
B3 was tested, and the Kd [6] was 98 nM.

B4: KSP*-Cy5.5 (peptide)
peptide: KSPNPRFGGGSK(Cy5.5)-NH2
notes: also called KSP*-GGGSK-Cy5.5; ErbB2 monomer peptide
With B4 the Kd [7] was 54 nM.
